PMC2639713

Target: T1, mini-vRNAP K176C/S885C (Bacteriophage N4 (coliphage), UniProt Q859P9 998-2103, K1173C;S1882C)
T1 sequence: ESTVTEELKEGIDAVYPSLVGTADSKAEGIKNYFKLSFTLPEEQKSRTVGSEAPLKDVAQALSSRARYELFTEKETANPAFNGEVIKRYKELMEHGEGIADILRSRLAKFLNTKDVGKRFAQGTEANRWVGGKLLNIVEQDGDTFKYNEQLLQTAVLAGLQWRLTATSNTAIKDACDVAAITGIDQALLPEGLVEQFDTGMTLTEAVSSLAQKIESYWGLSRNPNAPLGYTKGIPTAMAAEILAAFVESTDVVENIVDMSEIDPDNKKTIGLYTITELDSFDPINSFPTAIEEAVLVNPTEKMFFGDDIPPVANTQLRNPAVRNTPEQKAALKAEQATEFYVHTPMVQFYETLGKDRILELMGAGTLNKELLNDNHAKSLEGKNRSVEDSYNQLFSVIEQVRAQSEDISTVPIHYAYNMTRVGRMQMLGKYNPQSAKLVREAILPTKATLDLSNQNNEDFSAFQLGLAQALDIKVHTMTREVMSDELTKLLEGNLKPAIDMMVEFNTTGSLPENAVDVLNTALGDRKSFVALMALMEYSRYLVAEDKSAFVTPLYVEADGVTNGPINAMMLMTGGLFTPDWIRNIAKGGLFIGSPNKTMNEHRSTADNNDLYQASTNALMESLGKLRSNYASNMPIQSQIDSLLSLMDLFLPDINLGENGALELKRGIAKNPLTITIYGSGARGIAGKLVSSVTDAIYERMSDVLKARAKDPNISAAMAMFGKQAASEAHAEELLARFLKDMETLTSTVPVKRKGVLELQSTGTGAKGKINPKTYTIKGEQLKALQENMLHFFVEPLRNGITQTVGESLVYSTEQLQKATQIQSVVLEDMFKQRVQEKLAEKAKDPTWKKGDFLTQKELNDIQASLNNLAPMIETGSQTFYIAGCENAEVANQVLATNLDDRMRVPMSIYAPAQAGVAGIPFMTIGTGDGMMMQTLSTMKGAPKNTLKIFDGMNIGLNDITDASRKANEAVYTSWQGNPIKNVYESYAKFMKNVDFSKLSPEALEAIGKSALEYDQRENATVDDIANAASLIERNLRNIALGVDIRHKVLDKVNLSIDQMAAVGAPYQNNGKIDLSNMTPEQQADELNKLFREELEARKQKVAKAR
Assay: UV cross-linking

GAAGCGTAGCTTC (structured_DNA, 5-iodo-dU at position 7 (-11), written as T) [13mer -11 5-IdU promoter hairpin (-17 to -5)]: binds.
